From publication PMC2734569, “Functional mapping of the fission yeast DNA polymerase δ B-subunit Cdc1 by site-directed and random pentapeptide insertion mutagenesis” (BMC Molecular Biology, 2009)

Assays:
[1] = biological target: Cdc1-J17 (Schizosaccharomyces pombe) (UniProt P87324); assay: two-hybrid; LexA-Cdc1 bait (pBTM116 or pBTM116BN) with Gal4 activation domain-Cdc27 prey (pGAD2F-Cdc27) in S. cerevisiae CTY10-5d; ONPG liquid culture beta-galactosidase assay, mean of triplicates, as percent of wild-type Cdc1
[2] = biological target: T1, Cdc1-J9 (Schizosaccharomyces pombe, UniProt P87324 1-462, Met-ArgGlyThrProMet-Thr); assay: as above; settings: partners not purified
T1 construct: Cdc1, S. pombe, with a pentapeptide inserted after residue 174; source: yeast two-hybrid fusion, in S. cerevisiae CTY10-5d
T1 sequence (looked up): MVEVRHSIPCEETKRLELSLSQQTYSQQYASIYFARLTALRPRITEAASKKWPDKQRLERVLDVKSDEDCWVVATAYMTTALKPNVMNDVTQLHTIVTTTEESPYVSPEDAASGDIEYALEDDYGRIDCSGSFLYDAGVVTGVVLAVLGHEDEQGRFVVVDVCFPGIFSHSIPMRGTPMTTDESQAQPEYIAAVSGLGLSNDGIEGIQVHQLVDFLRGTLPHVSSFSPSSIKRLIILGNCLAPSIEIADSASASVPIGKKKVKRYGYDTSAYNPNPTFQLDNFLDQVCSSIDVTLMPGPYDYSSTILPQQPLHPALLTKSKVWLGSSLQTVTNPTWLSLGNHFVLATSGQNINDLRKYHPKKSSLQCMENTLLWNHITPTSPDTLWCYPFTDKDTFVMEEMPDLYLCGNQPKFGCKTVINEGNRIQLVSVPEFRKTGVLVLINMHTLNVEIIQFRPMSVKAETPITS

[3] = biological target: T2, Cdc1-A4 (Schizosaccharomyces pombe, UniProt P87324 1-462, Pro303Ala); assay: as above; settings: partners not purified
T2 construct: Cdc1, S. pombe, point mutant; source: yeast two-hybrid fusion, in S. cerevisiae CTY10-5d
T2 sequence (looked up): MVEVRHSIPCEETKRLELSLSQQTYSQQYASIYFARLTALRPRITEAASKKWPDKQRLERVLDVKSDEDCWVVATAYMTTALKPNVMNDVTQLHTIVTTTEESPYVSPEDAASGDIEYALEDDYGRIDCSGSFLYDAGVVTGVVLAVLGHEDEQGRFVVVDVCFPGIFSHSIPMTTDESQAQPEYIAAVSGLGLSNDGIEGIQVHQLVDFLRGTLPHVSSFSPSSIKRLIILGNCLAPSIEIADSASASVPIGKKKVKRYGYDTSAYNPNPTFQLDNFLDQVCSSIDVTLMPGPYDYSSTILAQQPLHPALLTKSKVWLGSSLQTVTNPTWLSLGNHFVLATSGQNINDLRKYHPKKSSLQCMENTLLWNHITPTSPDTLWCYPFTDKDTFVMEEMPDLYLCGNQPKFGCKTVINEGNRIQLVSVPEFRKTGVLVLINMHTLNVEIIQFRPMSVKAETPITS

[4] = biological target: T3, Cdc1-J10 (Schizosaccharomyces pombe, UniProt P87324 1-462, Tyr-ArgGlyThrProTyr-Met); assay: as above; settings: partners not purified
T3 construct: Cdc1, S. pombe, with a pentapeptide inserted after residue 77; also called J11; E6; source: yeast two-hybrid fusion, in S. cerevisiae CTY10-5d
T3 sequence (looked up): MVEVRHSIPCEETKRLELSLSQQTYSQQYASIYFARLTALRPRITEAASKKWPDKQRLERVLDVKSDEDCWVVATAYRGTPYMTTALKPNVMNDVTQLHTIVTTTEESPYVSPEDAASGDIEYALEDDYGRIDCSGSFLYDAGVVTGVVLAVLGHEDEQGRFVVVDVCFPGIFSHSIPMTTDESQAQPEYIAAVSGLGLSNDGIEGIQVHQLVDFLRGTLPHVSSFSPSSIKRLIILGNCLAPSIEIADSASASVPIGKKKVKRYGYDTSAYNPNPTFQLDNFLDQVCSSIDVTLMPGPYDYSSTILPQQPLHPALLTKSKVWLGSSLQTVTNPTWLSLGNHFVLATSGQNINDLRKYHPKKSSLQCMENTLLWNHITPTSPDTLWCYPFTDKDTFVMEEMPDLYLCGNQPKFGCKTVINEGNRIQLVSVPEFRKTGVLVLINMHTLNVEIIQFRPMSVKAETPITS

[5] = biological target: Cdc1-J17 (Schizosaccharomyces pombe) (UniProt P87324); assay: two-hybrid; LexA-Cdc1 bait (pBTM116 or pBTM116BN) with Gal4-Pol3 prey and co-expressed c-myc-tagged Cdc27 (pAA-Cdc27) in S. cerevisiae CTY10-5d; ONPG liquid culture beta-galactosidase assay, mean of triplicates, as percent of wild-type Cdc1

B1: Cdc27 (fission yeast DNA polymerase delta C-subunit) (natural protein, Schizosaccharomyces pombe, UniProt P30261 1-372, looked up)
chain: MEEWRNFLDIKVINESSLVTVDNLSLQLDISSEKAQEYLNMFYQGNDFLYPIYLIHGQPIDDEINLEIDEESQPISNFPVLQYILCDKSSLQEKQSRLKSGYKTVIFALSSAPLSDFDELLPAVYEIREKDVLYKKEDADKYGFIFNENSVPRVLKKAPSTHSPQLSVPSKTSTIDKTDTRSTEKTKGKDIFSNARNQKGNSSRKNKKAPLENHKEKEPLLPKEEKLSEQAKRERDDLKNIMQLEDESVSTTSVHDSEDDNLDSNNFQLEIGTEAKSAAPDEPQEIIKSVSGGKRRGKRKVKKYATTKDEEGFLVTKEEEVWESFSEDENISTGTSNVVRNKPTTVNIATKKKNTAQSKPQQKSIMSFFGKK
notes: DNA polymerase delta C-subunit Cdc27, S. pombe; prey plasmid pGAD2F-Cdc27; also called pGAD2F-Cdc27; source: yeast two-hybrid fusion, in S. cerevisiae CTY10-5d
**Q.** Which results are given for B1?
**A.** two-hybrid beta-galactosidase activity, % of wild-type Cdc1 [1]: < 1%; two-hybrid beta-galactosidase activity, % of wild-type Cdc1 [2]: 102%; two-hybrid beta-galactosidase activity, % of wild-type Cdc1 [3]: 31%; two-hybrid beta-galactosidase activity, % of wild-type Cdc1 [4]: 30%

B2: Pol3 (fission yeast DNA polymerase delta catalytic subunit) (natural protein, Schizosaccharomyces pombe, UniProt P30316 1-1086, looked up)
chain: MTDRSSNEGVVLNKENYPFPRRNGSIHGEITDVKRRRLSERNGYGDKKGSSSKEKTSSFEDELAEYASQLDQDEIKSSKDQQWQRPALPAINPEKDDIYFQQIDSEEFTEGSVPSIRLFGVTDNGNSILVHVVGFLPYFYVKAPVGFRPEMLERFTQDLDATCNGGVIDHCIIEMKENLYGFQGNEKSPFIKIFTTNPRILSRARNVFERGEFNFEELFPVGVGVTTFESNTQYLLRFMIDCDVVGMNWIHLPASKYQFRYQNRVSNCQIEAWINYKDLISLPAEGQWSKMAPLRIMSFDIECAGRKGVFPDPSIDPVIQIASIVTQYGDSTPFVRNVFCVDTCSQIVGTQVYEFQNQAEMLSSWSKFVRDVDPDVLIGYNICNFDIPYLLDRAKSLRIHNFPLLGRIHNFFSVAKETTFSSKAYGTRESKTTSIPGRLQLDMLQVMQRDFKLRSYSLNAVCSQFLGEQKEDVHYSIITDLQNGTADSRRRLAIYCLKDAYLPQRLMDKLMCFVNYTEMARVTGVPFNFLLARGQQIKVISQLFRKALQHDLVVPNIRVNGTDEQYEGATVIEPIKGYYDTPIATLDFSSLYPSIMQAHNLCYTTLLDSNTAELLKLKQDVDYSVTPNGDYFVKPHVRKGLLPIILADLLNARKKAKADLKKETDPFKKAVLDGRQLALKVSANSVYGFTGATNGRLPCLAISSSVTSYGRQMIEKTKDVVEKRYRIENGYSHDAVVIYGDTDSVMVKFGVKTLPEAMKLGEEAANYVSDQFPNPIKLEFEKVYFPYLLISKKRYAGLFWTRTDTYDKMDSKGIETVRRDNCPLVSYVIDTALRKMLIDQDVEGAQLFTKKVISDLLQNKIDMSQLVITKALSKTDYAAKMAHVELAERMRKRDAGSAPAIGDRVAYVIIKGAQGDQFYMRSEDPIYVLENNIPIDAKYYLENQLSKPLLRIFEPILGEKASSLLHGDHTRTISMAAPSVGGIMKFAVKVETCLGCKAPIKKGKTALCENCLNRSAELYQRQVAQVNDLEVRFARLWTQCQRCQGSMHQDVICTSRDCPIFYMRIAEHKKLQQSVDLLKRFDEMSW
notes: DNA polymerase delta catalytic subunit Pol3, S. pombe; prey plasmid named pACT-Pol3 in the results and pGAD2F-Pol3 in the methods; also called Gal4-Pol3; pACT-Pol3; source: yeast two-hybrid fusion, in S. cerevisiae CTY10-5d
**Q.** B2 was tested. Which two-hybrid beta-galactosidase activity, % of wild-type Cdc1 [5] did it give?
**A.** 2%
